Test results as given in article PMC3884668.

Molecular target: T1, DIS3L2 (rDIS3L2, wild type) (Homo sapiens, UniProt Q8IYB7 1-885)
T1 sequence: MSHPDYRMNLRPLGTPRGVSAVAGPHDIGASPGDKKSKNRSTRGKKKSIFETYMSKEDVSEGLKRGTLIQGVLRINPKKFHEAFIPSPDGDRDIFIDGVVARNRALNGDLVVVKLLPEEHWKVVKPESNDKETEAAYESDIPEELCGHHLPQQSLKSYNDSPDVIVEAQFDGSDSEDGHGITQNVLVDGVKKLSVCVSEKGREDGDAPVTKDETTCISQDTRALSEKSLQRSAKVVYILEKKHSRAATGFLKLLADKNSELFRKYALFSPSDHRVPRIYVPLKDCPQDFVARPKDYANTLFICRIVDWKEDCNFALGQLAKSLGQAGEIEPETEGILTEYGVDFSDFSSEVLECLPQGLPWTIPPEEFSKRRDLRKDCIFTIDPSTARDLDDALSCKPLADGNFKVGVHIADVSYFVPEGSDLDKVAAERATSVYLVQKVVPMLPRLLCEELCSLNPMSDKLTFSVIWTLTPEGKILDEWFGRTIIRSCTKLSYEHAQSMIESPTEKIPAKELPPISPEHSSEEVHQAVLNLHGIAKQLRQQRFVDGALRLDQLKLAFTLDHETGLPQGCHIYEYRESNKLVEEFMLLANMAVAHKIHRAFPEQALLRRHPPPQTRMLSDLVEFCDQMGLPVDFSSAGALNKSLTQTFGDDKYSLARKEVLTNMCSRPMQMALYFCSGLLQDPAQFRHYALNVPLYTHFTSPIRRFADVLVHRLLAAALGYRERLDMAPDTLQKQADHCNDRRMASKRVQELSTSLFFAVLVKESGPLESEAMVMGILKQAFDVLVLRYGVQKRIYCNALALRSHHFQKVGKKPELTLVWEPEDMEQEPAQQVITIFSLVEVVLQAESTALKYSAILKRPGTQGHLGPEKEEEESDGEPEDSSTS
Test: EMSA

**Q.** Does UUUUUUUUUUUUUUUUUUUUUUUUUUUUUU (ssRNA) [U30 RNA] bind?
**A.** binds
